Assays:
[1] = tested on: embryonic stem cell; conditions: cited from earlier work
[2] = tested on: ES cell EB5; assay: Nerve differentiation of ES cell EB5 by solution recovered from PA6 cell with polyanion-containing Hanks' balanced salt solution (SDIA activity); assay type: cell-based, mouse; conditions: SFRP 1 removed with anti-SFRP 1 polyclonal antibody on protein G Sepharose, 4° C., 15 hours; compared with untreated solution
Method: ES cell EB5 (H. Niwa et al., Nature Genet., 24, 372 (2000); obtained from Dr. Hitoshi Niwa at the Molecular Control Medical Science Course, Medical School, Osaka University) was used as the embryonic stem cell, and an MC3T3-G2/PA6 cell (H. Kodama et al., J. Cell Physiol., 112) 89 (1982), hereinafter referred to as “PA6 cell”) as the stromal cell, and the ES cell EB5 was cultured in accordance with the method described in Reference Example 1 and used in the test.
Cells of PA6 cultured to almost confluent state on a dish of 10 cm in diameter were washed twice with 10 ml of PBS(−) (manufactured by Invitrogen) and once with 10 ml of Hanks' balanced salt solution (manufactured by Invitrogen), 3 ml of Hanks' balanced salt solution containing from 0.001% (w/v) to 0.1% (w/v) of heparin (manufactured by Nacalai Tesque) was added thereto, the mixture was allowed to stand at 37° C. for 30 minutes, and the solution was recovered. The solution obtained was added to the PA6 on the 10 cm, dish washed in the same manner described above, the mixture was allowed to stand at 37° C. for 30 minutes in the same manner, and then the solution was recovered. This process was carried out on PA6 on the other 10 cm dish, and effect of the recovered solution ES cell was examined. […]

[3] = tested on: ES cell EB5; assay: Coculture of ES cell EB5 with PA6 cell in BMP4-added serum-free medium, immunological staining; assay type: cell-based, mouse
Method: A medium was prepared by adding 0.5 nmol/l BMP4 (manufactured by R & D) to the serum-free medium described in Reference Example 1. The ES cell EB5 was cocultured with PA6 cell according to the method described in Reference Example 1, using the thus produced BMP4-added serum-free medium instead of the serum-free medium used in Reference Example 1. Eight days after culturing, immunological cell staining was carried out by using the anti-NCAM antibody, the anti-nestin antibody or an antibody against a non-neural ectoderm cell marker E cadherin (manufactured by Takara Shuzo). As a control, coculturing was carried out in the serum-free medium without BMP4.
Also, 8 days after culturing in the BMP4-added serum-free medium, the medium was changed to Glasgow MEM medium containing 10% fetal bovine serum (manufactured by GIBCO BRL), followed by culturing for 3 days. The thus cultured cells were fixed for 30 minutes by adding 4% paraformaldehyde and immunologically stained with an antibody against a skin epidermis cell marker keratin 14 (manufactured by Biomedia), and the results were compared with those in which culturing was continued for additional 3 days in the bovine serum-free medium, with the results shown in FIGS. 9G, H and I.

[4] = tested on: ES cell EB5; assay: Mesodermal marker staining of colonies from ES cell/PA6 coculture in BMP4-added serum-free medium; assay type: cell-based, mouse; conditions: 0.5 nmol/l BMP4-added serum-free medium, coculture with PA6 cell, 8 days
Text: A medium was produced by adding 0.5 nmol/l of BMP4 (manufactured by R & D) to the serum-free medium described in Reference Example 1. Using the thus produced BMP4-added serum-free medium instead of the serum-free medium used in Reference Example 1, the ES cell EB5 and PA6 cell were cocultured according to the method described in Reference Example 1. That is, the PA6 cell proliferated to almost confluent on a 3 cm tissue culture dish was used as a feeder cell, the ES cell was inoculated onto the feeder cell at a density of 200 cells/dish, medium exchange was carried out with a fresh medium on the 4th, 6th and 7th days, and the cells were cultured at 37° C. for 8 days in a stream of 5% carbon dioxide in a CO2 incubator.
Eight days after coculturing, the cells were fixed according to the method described in Reference Example 1, and colonies formed as a result of coculturing of the ES cell and PA6 cell were immunologically stained with the anti-NCAM antibody, the anti-E cadherin antibody, an MF20 antibody which recognizes mesodermal cells (manufactured by Developmental Studies Hybridoma Bank) and an antibody against PDGF receptor α or Flk1 whose expression are observed in mesodermal cells (S. I. Nishikawa et al., Development, 125, 1747 (1998)).

[5] = tested on: ES cell EB5; assay: Effects of shh and BMP4 on dorso-ventral neural markers in ES cell EB5/PA6 coculture; assay type: cell-based, mouse; conditions: shh 300 nmol/l or BMP4 0.5 nmol/l added at medium exchange on 4th, 6th, 8th days; 10 days coculture with PA6
Method: According to the method described in Reference Example 1, the ES cell EB5 was cultured for 10 days in the serum-free medium without BMP4 by using the PA6 cell as a feeder cell. That is, the PA6 cell proliferated to almost confluent on a 3 cm tissue culture dish was used as a feeder cell, the ES cell was inoculated onto the feeder cell at a density of 200 cells/dish, the medium was exchanged with a fresh serum-free medium on the 4th, 6th and 8th days, and the cells were cultured at 37° C. for 10 days in a 5% CO2 incubator.
Effects of shh were evaluated according to the similar method described above, by using a serum-free medium to which 300 nmol/l of shh (manufactured by R & D) had been added at the time of the medium exchange on the 4th, 6th and 8th days.
Effects of BMP4 were evaluated according to the similar method described above, by using a serum-free medium to which 0.5 nmol/l of BMP4 (manufactured by R & D) had been added at the time of the medium exchange on the 4th, 6th and 8th days.
Ten days after coculturing, the cells cultured by respective culturing methods were fixed according to the method described in Reference Example 1, and the colonies formed as a result of coculturing of the ES cell with PA6 cell were immunologically stained with the anti-NCAM antibody, an antibody against HNF-3β which is a marker of the basal plate existing on the most ventral side of the central nervous system primordium (neural tube) (purchased from Developmental Studies Hybridoma Bank), an antibody against Nkx2.2 as a marker existing secondary to the HNF-3β from the ventral side (purchased from Developmental Studies Hybridoma Bank), an antibody against Pax-7 as a marker of the neural tube dorsal side (purchased from Developmental Studies Hybridoma Bank), an antibody against AP-2 as a marker of the neural crest cell (purchased from Developmental Studies Hybridoma Bank), an antibody against islet 1 as a marker of motor neuron (purchased from Developmental Studies Hybridoma Bank) and an antibody against VAchT which is a marker of cholinergic neuron (manufactured by Chemicon).

[6] = 0.5 nmol/l BMP4-added serum-free medium, coculture with PA6 cell, 8 days

B1: GDNF: glial cell-line derived neurotrophic factor (protein, UniProt P39905 78-211, looked up)
Glial cell line-derived …: SPDKQMAVLPRRERNRQAAAANPENSRGKGRRGQRGKNRGCVLTAIHLNVTDLGLGYETKEELIFRYCSGSCDAAETTYDKILKNLSRNRRLVSDKVGQACCRPIAFDDDLSFLDDNLVYHILRKHSAKRCGCI
SDIA-like activity to induce differentiation of embryonic stem cell into ectoderm system cells [1]: no SDIA-like activity

B2: SFRP 1: mouse-derived secreted frizzled-related protein 1 (SEQ ID NO:7), about 38 kDa band identified in solution having SDIA activity (protein, listed as Mus musculus)
chain: MGVGRSARGRGGAASGVLLALAAALLAAGSASEYDYVSFQSDIGSYQSGRFYTKPPQCVDIPVDLRLCHNVGYKKMVLPNLLEHETMAEVKQQASSWVPLLNKNCHMGTQVFLCSLFAPVCLDRPIYPCRWLCEAVRDSCEPVMQFFGFYWPEMLKCDKFPEGDVCIAMTPPNTTEASKPQGTTVCPPCDNELKSEAIIEHLCASEFALRMKIKEVKKENGDKKIVPKKKKPLKLGPIKKKELKALVLFLKNGADCPCHQLDNLSHNFLIMGRKVKSQYLLTAIHKWDKKNKEFKNFMKRMKNHECPTFQSVFK
SDIA activity of solution after removal of SFRP 1 [2]: decrease of SDIA activity was observed

B3: BMP4: bone morphogenetic protein 4, dorsal factor of neural tube (manufactured by R & D) (protein, UniProt P12644 293-408, looked up)
Bone morphogenetic protein 4: SPKHHSQRARKKNKNCRRHSLYVDFSDVGWNDWIVAPPGYQAFYCHGDCPFPLADHLNSTNHAIVQTLVNSVNSSIPKACCVPTELSAISMLYLDEYDKVVLKNYQEMVVEGCGCR
anti-NCAM antibody staining of ES cell-derived colonies [3, 6]: anti-NCAM antibody-negative | anti-nestin antibody staining of ES cell-derived colonies [3, 6]: anti-nestin antibody-negative | frequency of E cadherin-positive colonies [3, 6]: 98% | frequency of keratin 14-positive colonies ([3]; 8 days in BMP4-added serum-free medium, then 3 days in Glasgow MEM medium containing 10% fetal bovine serum): 47% | frequency of keratin 14-positive colonies ([3]; BMP4-added serum-free medium throughout (8 days plus additional 3 days serum-free)): 34% | colonies stained with mesodermal cell markers PDGF receptor α, Flk1 and MF20, of the total colonies [4]: ≤ 5% | ratio of ES cell-derived colonies stained with Anti-AP-2 antibody [5]: 24% | ratio of ES cell-derived colonies stained with Anti-HNF-3β antibody [5]: 9% | ratio of ES cell-derived colonies stained with Anti-NCAM antibody [5]: 90% | ratio of ES cell-derived colonies stained with Anti-Nkx2.2 antibody [5]: 19% | ratio of ES cell-derived colonies stained with Anti-Pax-7 antibody [5]: 72% | ratio of ES cell-derived colonies stained with Anti-VAchT antibody [5]: 42% | ratio of ES cell-derived colonies stained with Anti-islet 1 antibody [5]: 36%

B4: IL-11: interleukin 11 (protein, UniProt P20809 22-199, looked up)
Interleukin-11: PGPPPGPPRVSPDPRAELDSTVLLTRSLLADTRQLAAQLRDKFPADGDHNLDSLPTLAMSAGALGALQLPGVLTRLRADLLSYLRHVQWLRRAGGSSLKTLEPELGTLQARLDRLLRRLQLLMSRLALPQPPPDPPAPPLAPPSSAWGGIRAAHAILGGLHLTLDWAVRGLLLLKTRL
SDIA-like activity to induce differentiation of embryonic stem cell into ectoderm system cells [1]: no SDIA-like activity

B5: FGF-8: fibroblast growth factor 8 (protein, UniProt P55075 23-233, looked up)
Fibroblast growth factor 8: QEGPGRGPALGRELASLFRAGREPQGVSQQHVREQSLVTDQLSRRLIRTYQLYSRTSGKHVQVLANKRINAMAEDGDPFAKLIVETDTFGSRVRVRGAETGLYICMNKKGKLIAKSNGKGKDCVFTEIVLENNYTALQNAKYEGWYMAFTRKGRPRKGSKTRQHQREVHFMKRLPRGHHTTEQSLRFEFLNYPPFTRSLRGSQRTWAPEPR
SDIA-like activity to induce differentiation of embryonic stem cell into ectoderm system cells [1]: no SDIA-like activity
